Data reported in the supplement of paper PMC12764529.
± gives the half width of the 95% confidence interval.

What was measured:
[1] = folding stability dG unfold from trypsin proteolysis; higher = more stable
Protocol: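 Folding stability of de novo designed mini-proteins (<80 aa, no Cys; designed by TrROS, TrMRF, ProteinMPNN and the joint model) was measured by cDNA display proteolysis with trypsin and chymotrypsin. Each protease was used at 11 concentrations in a threefold dilution series plus a no-protease condition. K50 was inferred by Bayesian fitting of sequencing counts, and dG unfold was derived against a sequence-predicted unfolded-state K50 (Tsuboyama et al. method). Sequences shown include variable-length N-terminal GS-type padding (SAGGSAGG...) inside a display construct carrying a PA tag. Rows were kept only if the AF2 dimer inter-PAE was >15, to exclude likely homo-oligomers.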

[2] = folding stability dG unfold (combined trypsin and chymotrypsin); higher = more stable
How it was run: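 Unfolding free energy was derived, per protease or combined, against a sequence-predicted unfolded-state K50 and a shared folded-state K50, starting from K50 inferred by Bayesian fitting of sequencing counts. Digestion with trypsin and chymotrypsin was carried out on designed mini-proteins under 80 residues without cysteine in a PA-tagged cDNA display construct. Only designs with AlphaFold2 dimer inter-PAE above 15 were kept.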

SAGGSAGGSAGGRITINPENGMVQIKGPNGNQHTFPMDDASELQKEFGLPNIDIEVFPPNSAGGSAGGSAGG [r7_235_TrROS]
folding stability dG unfold [1]: 0.292 ± 0.15 kcal/mol
folding stability dG unfold [2]: -0.145 ± 0.22 kcal/mol

SAGGSAGGSAGGSEPWYVRIQIPDGNQIMFPPGSEAKIEIPKEEKDIRITEVIPADDIKSAGGSAGGSAGGS [r4_122_TrROS]
folding stability dG unfold [1]: 0.0224 ± 0.13 kcal/mol
folding stability dG unfold [2]: < -1 kcal/mol

SAGGSAGGSAGGSERHTAVLVDTGFRISPAPEEGGLRLEAGASLTIREVPEDALKEVLGSAGGSAGGSAGGS [r4_274_TrMRF]
folding stability dG unfold [1]: -0.398 ± 0.26 kcal/mol
folding stability dG unfold [2]: < -1 kcal/mol

SAGGSAGGSAGGSKKTAVLKVGDKWIPLEIDEDKVTLIYPDGKKEEISLEDIPENTISDASAGGSAGGSAGG [r7_748_TrMRF]
folding stability dG unfold [1]: 0.0901 ± 0.064 kcal/mol
folding stability dG unfold [2]: -0.212 ± 0.11 kcal/mol

SAGGSAGGSAGGSMAIPVYLKIENKVLTSLDELKEAVESGKPIEIERIEAFDLSPDEEVSAGGSAGGSAGGS [r4_479_TrMRF]
folding stability dG unfold [1]: -0.74 ± 0.35 kcal/mol
folding stability dG unfold [2]: < -1 kcal/mol

SAGGSAGGSAGGSMPLRKVTVSRPDSTLEFEFPESVPEEEVKEKLKKEYPNAEVKVEPESAGGSAGGSAGGS [r4_155_JUSTAS]
folding stability dG unfold [1]: -0.633 ± 0.25 kcal/mol
folding stability dG unfold [2]: < -1 kcal/mol

SAGGSAGGSAGGSMVLYERVPASELPPGKGETLLIREVTVEKLPGNRIILNEGVKVIPPSAGGSAGGSAGGS [r4_444_JUSTAS]
folding stability dG unfold [1]: -0.186 ± 0.15 kcal/mol
folding stability dG unfold [2]: -0.831 ± 0.24 kcal/mol

SAGGSAGGSAGGVPEEEIRERVEAAGLTAPDAEVVYETPENITVRVTVPPTGLVFERLESAGGSAGGSAGGS [r10_604_JUSTAS]
folding stability dG unfold [1]: 0.0893 ± 0.048 kcal/mol
folding stability dG unfold [2]: -0.367 ± 0.1 kcal/mol

SAGGSAGGSAGGVRIRPPNGEWIRIDNAPDDEDIKDKLKKHPNVKPEIDPDTNEAWIPVSAGGSAGGSAGGS [r10_792_TrROS]
folding stability dG unfold [1]: -1.09 ± 0.42 kcal/mol
folding stability dG unfold [2]: < -1 kcal/mol

SAGGSAGGSAGGYKVKVYNPENGKPQEIPLPPNDIPELLDKLPNGPWWIRVKDPDRWIPLSAGGSAGGSAGG [r7_188_TrROS]
folding stability dG unfold [1]: -1.05 ± 0.51 kcal/mol
folding stability dG unfold [2]: -0.562 ± 0.57 kcal/mol

SAGGSAGGSAGIPNLIAYEVSKEGKPVKIIVKSPNGEEYEITVSPNESIPENIEILKVEVGSAGGSAGGSAG [r3_421_TrMRF]
folding stability dG unfold [1]: 0.685 ± 0.034 kcal/mol
folding stability dG unfold [2]: -0.0441 ± 0.15 kcal/mol

SAGGSAGGSAGITIEFPEEENNFRVENPNDGKKHEIPGTPDEIKEYALDKFPGRPIKIHPSAGGSAGGSAGG [r11_614_TrROS]
folding stability dG unfold [1]: 0.11 ± 0.079 kcal/mol
folding stability dG unfold [2]: -0.511 ± 0.43 kcal/mol

SAGGSAGGSAGKIKAYAEKDVPAEIVAKAIEEEIREAFPDNPEEIKGIEVEPDGFLSETISAGGSAGGSAGG [r17_43_TrMRF]
folding stability dG unfold [1]: -0.636 ± 0.15 kcal/mol
folding stability dG unfold [2]: < -1 kcal/mol

SAGGSAGGSAGKVKVKVESNPDGTLIIAEEFEDFVVIVELKVDDDGIHFHPHPVVLSKELSAGGSAGGSAGG [r17_72_TrMRF]
folding stability dG unfold [1]: 0.0484 ± 0.1 kcal/mol
folding stability dG unfold [2]: -0.695 ± 0.38 kcal/mol

SAGGSAGGSAGLVKLKDKNGKLITLEVKEVEVVEVKEVTLKPKPKPKKTLKLSEEELKKLSAGGSAGGSAGG [r17_484_TrROS_Hall]
folding stability dG unfold [1]: -0.143 ± 0.075 kcal/mol
folding stability dG unfold [2]: -0.494 ± 0.25 kcal/mol

SAGGSAGGSAGMEIEVEVDPSTNTVKLTKKIGGKWVEATVTRTPGTGTITLPDGSTLKLTSAGGSAGGSAGG [r11_395_JUSTAS]
folding stability dG unfold [1]: -0.709 ± 0.47 kcal/mol
folding stability dG unfold [2]: < -1 kcal/mol

SAGGSAGGSAGMEIPEDWTVVEESEVPDERLVTVHNPKTGELYVVTQPPATGEETVERYLSAGGSAGGSAGG [r11_896_JUSTAS]
folding stability dG unfold [1]: 0.0248 ± 0.2 kcal/mol
folding stability dG unfold [2]: < -1 kcal/mol

SAGGSAGGSAGMILTEEVTVAVPTLSTADGTRHTTTVPELVVVELKLPPVPPEAVEKLLASAGGSAGGSAGG [r11_318_JUSTAS]
folding stability dG unfold [1]: -0.0441 ± 0.019 kcal/mol
folding stability dG unfold [2]: -0.887 ± 0.16 kcal/mol

SAGGSAGGSAGMMEEKLIKEYEDPNGGKKYTIKLVKDPKTGKEKIVKETIEPNKKTTEIKNLSAGGSAGGSA [r18_444_JUSTAS]
folding stability dG unfold [1]: -0.36 ± 0.21 kcal/mol
folding stability dG unfold [2]: -0.365 ± 0.62 kcal/mol

SAGGSAGGSAGNMKEVEFTIPGAPPDELADNLPPGIKDVEIERNPEARENGGYSIKAYVDSAGGSAGGSAGG [r11_1002_TrROS]
folding stability dG unfold [1]: -0.0749 ± 0.17 kcal/mol
folding stability dG unfold [2]: < -1 kcal/mol

SAGGSAGGSAGNVEEIADQLKPNGYKISTVEPTDDQVEVEIYNPESKEPRKFRIPPNQPISAGGSAGGSAGG [r11_428_TrROS]
folding stability dG unfold [1]: -0.414 ± 0.24 kcal/mol
folding stability dG unfold [2]: < -1 kcal/mol

SAGGSAGGSAGPITITDIPSEEEAAALIAARPGVEVERKPVTLSEEERWEVTLTLPGEAASAGGSAGGSAGG [r17_542_JUSTAS]
folding stability dG unfold [1]: 0.157 ± 0.058 kcal/mol
folding stability dG unfold [2]: -0.722 ± 0.18 kcal/mol

SAGGSAGGSAGPKWKQITIPMEPGQSVNEIADEIKDELGPGKRVHVSMHENGWMTIYVRKSAGGSAGGSAGG [r17_20_TrROS]
folding stability dG unfold [1]: -0.484 ± 0.23 kcal/mol
folding stability dG unfold [2]: < -1 kcal/mol
